We go through eleven molecules from article PMC11480083.

Data set [1] has as its system O=C(c1ccc(O)cc1O)c1ccc(O)cc1O. Kind of data set: purified protein. To be noted: 4 mM UDP-Glc, 100 mM Kpi pH 8.0, 30 °C.
Substrate in data set [2]: O=C(c1ccc(O)cc1O)c1ccc(O)cc1O
The data set is described as follows: steady-state kinetics, HPLC. Type of data set: biochemical, Nelumbo nucifera. To be noted: UDP-Glc donor.

Substrate in data set [3]: O=C(c1ccc(O)cc1O)c1ccc(O)cc1O
The data set is described as follows: steady-state kinetics, HPLC. Type of data set: biochemical, Gardenia jasminoides. To be noted: UDP-Glc donor.

Substrate in data set [4]: O=C(c1ccc(O)cc1O)c1ccc(O)cc1O
Kind of data set: purified protein.

Substrate in data set [5]: O=C(c1ccc(O)cc1O)c1ccc(O)cc1O
The data set is described as follows: steady-state kinetics, HPLC. Type of data set: biochemical, Citrus japonica. To be noted: UDP-Glc donor.

The Km is the substrate concentration at which the rate is half of its maximum. With MiCGT (Mangifera indica; E152Q/V190D), in data set [1], the Km was 189 ± 21 µM.

As for MiCGT (Mangifera indica; M148A), the Km in data set [1] was determined as 269 ± 49 µM.

Usually kcat stands for the maximal rate divided by the concentration of active sites. For the molecule “MiCGT (Mangifera indica; M148A/S121D/V190T)”, in data set [1], the Km was determined as 249 ± 30 µM and the kcat was found to be 0.51143 ± 0.0157 s⁻¹.

As to MiCGT (Mangifera indica), in data set [1], the Km is 430 ± 155 µM and the kcat amounted to 0.00848 ± 0.00147 s⁻¹.

As to MiCGT (Mangifera indica; M148A/V190T), the Km in data set [1] amounted to 317 ± 100 µM.

Take “MiCGT (Mangifera indica; E152Q/S122P/V190D)”: in data set [1], the Km was found to be 36 ± 3 µM and the kcat turned out to be 0.1579 ± 0.00172 s⁻¹.

As to MiCGT (Mangifera indica; E152Q), in data set [1], the Km is 176 ± 25 µM.

B1: NnGT (Nelumbo nucifera; C156Q/L197D/S126P) (protein)
chain: MEMSSSSDLQILPPHVALLPSSGMGHLVPFVRLAAALARRNCLVTFITTHPTVSLSESRLVSRLLSAFPHVTPLEFHLLPLDHSTANSKDPFFLQFEAIRRSAHLLSPLLSSCSDPPLSALITDVPLASAFISITDELRLPNYILFTSSAWMLSLQLNFPTFVVNTSTNLSGGSATASDDIEIPGVPPVPKSWLPPDLLDLSNLFTTQFMANGQELIKSNGILINTFGNAEQATVAALNEGKVVNGLPPVTKIGPLAPCEFEKGSSVEWLDGQPAGSVLYVSFGSRTAMSREQIRELGDGLVRSGCRFLWVVKDKKVDREDEEELGGIVGQELMERMKDNGLVVKNWVDQGVVLAHPAVGGFLSHCGWNSVTEAAWNGVPVLAWPQHGDQSINAQVMEKSGIGMWVKSWGWGRTEVVKGEEIGQKIGEMMGNDRLKAQAANIREESRRAVEVGGGSYKELEGIIEKWKISRI
B1: in data set [2], the Km was 319 ± 61 µM and the kcat was found to be 0.00872 ± 0.000567 s⁻¹.

B2: GjGTa (Gardenia jasminoides; A142M/F116S/F117P) (protein)
chain: MENTLVLYPAPGIGHMISMLELAKLILRHYSNKFSRIHILINTGFRDMKSTYLDHISSTNPSIVVHQFPFIQADLSSSLSPPAIGFKFIRKNAPNVHHALQEISKTSSIRALIIDSPCTSAMPYSNNLGIPVYYFFTSGAAMVALFLYFPTIHKQTSESFKDLVQTKFDVPGLPPIPATQMPEPVLDRDDPAYDDILYYSVHLPKSSGIIVNTFDELEPIALKAITDGLCVPDAPTPPLYNIGPLIADADSRPAIDGDKGIDLDQSDCFSWLDRQPDQCVVFLCFGSRGTFSVEQIKEIAKGLERSGKRFLWVVKKPLRNNKSKQVEGSGGFEIDSILPERFLEKTKGIGLVVKSWIPQLQVLRHPAVGGFVTHCGWNSTLEAVVAGVPLVAWPLHAEQHVNMAALVQDMKMAIPVEQGDDGIVRGEEVEKRVRELMDSERGRELRKLSQKTRDIAAESGVHLGSSSTALASLIHVVFGN
Regarding B2, in data set [3], the Km turned out to be 12 ± 0.5 µM and the catalytic constant (kcat) came to 0.00035 ± 1.2e-06 s⁻¹.

B3: FcCGT (Citrus japonica; A189D/T149Q) (protein)
chain: MSDSGGFDSHPHVALIPSAGMGHLTPFLRLAASLVQHHCRVTLITTYPTVSLAETQHVSHFLSAYPQVTEKRFHLLPFDPNSANATDPFFLRWEAIRRSAHLLAPLLSPPLSALITDVTLISAVLPVTINLHLPNYVLFTASARMFSLQASFPAIVASKSTSSGSVEFDDDFIEIPGLPPIPLSSVPPDVMDSKSLFATSFLENGNSFVKSNGVLINSFDALEADTLVALNGRRVVAGLPPVYAVGPLLPCEFEKRDDPSTSLILKWLDDQPEGSVVYVSFGSRLALSMEQTKELGNGLLSSGCRFLWVVKGKTVDKEDEESLKNVLGHELMEKIKDQGLVVKNWVDQDKVLSHRAVGGFVSHGGWNSLVEAARHGVPVLVWPQFGDQKINAEAVESAGLGMWVRSWGWGTELRAKGDEIGLKIKDLMANDFLREQAKRIEEEARKAIGVGGSSERTFKELIDKWKCNNNTH
Consider B3, for which, in data set [4], the Km turned out to be 375 ± 72 µM and the kcat was 0.04075 ± 0.0016 s⁻¹.

B4: FcCGT (Citrus japonica; M145A/V118D) (protein)
chain: MSDSGGFDSHPHVALIPSAGMGHLTPFLRLAASLVQHHCRVTLITTYPTVSLAETQHVSHFLSAYPQVTEKRFHLLPFDPNSANATDPFFLRWEAIRRSAHLLAPLLSPPLSALITDDTLISAVLPVTINLHLPNYVLFTASARAFSLTASFPAIVASKSTSSGSVEFDDDFIEIPGLPPIPLSSVPPAVMDSKSLFATSFLENGNSFVKSNGVLINSFDALEADTLVALNGRRVVAGLPPVYAVGPLLPCEFEKRDDPSTSLILKWLDDQPEGSVVYVSFGSRLALSMEQTKELGNGLLSSGCRFLWVVKGKTVDKEDEESLKNVLGHELMEKIKDQGLVVKNWVDQDKVLSHRAVGGFVSHGGWNSLVEAARHGVPVLVWPQFGDQKINAEAVESAGLGMWVRSWGWGTELRAKGDEIGLKIKDLMANDFLREQAKRIEEEARKAIGVGGSSERTFKELIDKWKCNNNTH
For the molecule B4, in data set [5], the Km turned out to be 1064 ± 151 µM and the kcat amounted to 0.05323 ± 0.00218 s⁻¹.
